Test results as given in article PMC4794604 (Molecules and Cells, 2016).

Legend:
Experiment in all cases: ELISA
[1] = molecular target: Fc-fused ECD of FGFR3 (IIIc) (Homo sapiens (assumed), UniProt P22607)
[2] = molecular target: Fc-fused ECD of HER3 (Homo sapiens (assumed), UniProt P21860)
[3] = molecular target: Fc-fused ECD of IGF-IR (Homo sapiens (assumed), UniProt P08069)
[4] = molecular target: Fc-fused ECD of EGFR (Homo sapiens (assumed), UniProt P00533)
[5] = molecular target: Fc-fused ECD of PDGFRβ (Homo sapiens (assumed), UniProt P09619)
[6] = molecular target: Fc-fused ECD of HER4 (Homo sapiens (assumed), UniProt Q15303)
[7] = molecular target: HGFR/c-Met ECD-Fc (Homo sapiens (assumed), UniProt P08581)
[8] = molecular target: Fc-fused ECD of VEGFR2 (Homo sapiens (assumed), UniProt P35968)

Measured: binding result

Chain of Fc-fused ECD of VEGFR2 (P35968 20-764): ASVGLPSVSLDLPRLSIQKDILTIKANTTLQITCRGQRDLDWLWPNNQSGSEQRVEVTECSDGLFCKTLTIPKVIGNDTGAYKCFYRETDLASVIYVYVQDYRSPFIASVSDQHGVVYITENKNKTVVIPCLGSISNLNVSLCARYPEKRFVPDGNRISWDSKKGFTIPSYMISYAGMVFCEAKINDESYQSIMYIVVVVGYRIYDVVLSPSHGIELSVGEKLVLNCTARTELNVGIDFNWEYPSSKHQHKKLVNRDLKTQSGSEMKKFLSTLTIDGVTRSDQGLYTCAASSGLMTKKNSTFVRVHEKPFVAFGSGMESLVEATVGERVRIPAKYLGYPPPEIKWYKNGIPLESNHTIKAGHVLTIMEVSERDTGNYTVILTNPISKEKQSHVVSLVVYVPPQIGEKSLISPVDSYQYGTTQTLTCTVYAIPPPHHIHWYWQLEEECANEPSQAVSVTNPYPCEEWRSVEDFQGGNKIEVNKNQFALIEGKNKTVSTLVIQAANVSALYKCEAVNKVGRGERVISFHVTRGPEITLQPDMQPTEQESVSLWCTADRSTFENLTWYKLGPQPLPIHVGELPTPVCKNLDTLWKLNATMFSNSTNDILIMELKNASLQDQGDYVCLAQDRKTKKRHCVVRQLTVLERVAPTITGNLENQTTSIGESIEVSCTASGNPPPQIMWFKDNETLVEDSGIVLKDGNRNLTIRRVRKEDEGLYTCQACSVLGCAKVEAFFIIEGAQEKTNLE
Chain of Fc-fused ECD of IGF-IR (P08069 741-935): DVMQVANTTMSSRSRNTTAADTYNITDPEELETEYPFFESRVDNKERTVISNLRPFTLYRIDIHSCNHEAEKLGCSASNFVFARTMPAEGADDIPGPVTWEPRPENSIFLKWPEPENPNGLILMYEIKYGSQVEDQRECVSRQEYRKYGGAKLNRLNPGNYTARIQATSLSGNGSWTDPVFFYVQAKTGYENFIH
Chain of Fc-fused ECD of HER4 (Q15303 26-651): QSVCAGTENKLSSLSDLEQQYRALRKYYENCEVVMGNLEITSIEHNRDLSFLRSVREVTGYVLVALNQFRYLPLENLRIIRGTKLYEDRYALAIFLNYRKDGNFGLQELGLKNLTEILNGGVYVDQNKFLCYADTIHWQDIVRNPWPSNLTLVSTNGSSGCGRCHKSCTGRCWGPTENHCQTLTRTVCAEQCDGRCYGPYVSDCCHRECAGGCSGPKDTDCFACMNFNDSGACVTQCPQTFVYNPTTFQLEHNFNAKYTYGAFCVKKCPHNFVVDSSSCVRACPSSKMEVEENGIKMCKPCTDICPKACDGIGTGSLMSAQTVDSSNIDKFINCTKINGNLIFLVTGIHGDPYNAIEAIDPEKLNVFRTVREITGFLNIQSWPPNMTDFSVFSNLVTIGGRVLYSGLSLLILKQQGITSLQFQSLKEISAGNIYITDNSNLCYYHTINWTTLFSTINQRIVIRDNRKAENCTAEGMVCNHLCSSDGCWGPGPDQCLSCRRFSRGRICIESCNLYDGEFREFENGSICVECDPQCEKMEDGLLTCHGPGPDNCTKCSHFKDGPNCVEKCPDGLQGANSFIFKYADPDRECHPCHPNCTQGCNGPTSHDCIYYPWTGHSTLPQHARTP
Chain of Fc-fused ECD of HER3 (P21860 20-643): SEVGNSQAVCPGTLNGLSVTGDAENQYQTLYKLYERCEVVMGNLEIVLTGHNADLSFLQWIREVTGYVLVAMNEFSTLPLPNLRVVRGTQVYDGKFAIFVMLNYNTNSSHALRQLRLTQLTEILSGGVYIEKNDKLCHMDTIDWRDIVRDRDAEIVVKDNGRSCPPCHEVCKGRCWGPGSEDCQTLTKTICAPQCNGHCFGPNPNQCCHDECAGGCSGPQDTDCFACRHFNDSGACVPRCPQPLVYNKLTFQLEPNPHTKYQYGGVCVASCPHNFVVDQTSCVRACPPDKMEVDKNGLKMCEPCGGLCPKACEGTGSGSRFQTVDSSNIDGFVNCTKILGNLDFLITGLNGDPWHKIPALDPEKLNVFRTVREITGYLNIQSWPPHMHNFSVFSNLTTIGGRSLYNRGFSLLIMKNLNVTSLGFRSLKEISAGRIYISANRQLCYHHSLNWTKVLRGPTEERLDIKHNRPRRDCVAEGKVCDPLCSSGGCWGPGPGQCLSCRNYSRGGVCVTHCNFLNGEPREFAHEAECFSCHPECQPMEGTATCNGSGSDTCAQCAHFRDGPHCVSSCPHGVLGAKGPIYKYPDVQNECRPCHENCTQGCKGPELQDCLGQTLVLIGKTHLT
Chain of HGFR/c-Met ECD-Fc (P08581 25-932): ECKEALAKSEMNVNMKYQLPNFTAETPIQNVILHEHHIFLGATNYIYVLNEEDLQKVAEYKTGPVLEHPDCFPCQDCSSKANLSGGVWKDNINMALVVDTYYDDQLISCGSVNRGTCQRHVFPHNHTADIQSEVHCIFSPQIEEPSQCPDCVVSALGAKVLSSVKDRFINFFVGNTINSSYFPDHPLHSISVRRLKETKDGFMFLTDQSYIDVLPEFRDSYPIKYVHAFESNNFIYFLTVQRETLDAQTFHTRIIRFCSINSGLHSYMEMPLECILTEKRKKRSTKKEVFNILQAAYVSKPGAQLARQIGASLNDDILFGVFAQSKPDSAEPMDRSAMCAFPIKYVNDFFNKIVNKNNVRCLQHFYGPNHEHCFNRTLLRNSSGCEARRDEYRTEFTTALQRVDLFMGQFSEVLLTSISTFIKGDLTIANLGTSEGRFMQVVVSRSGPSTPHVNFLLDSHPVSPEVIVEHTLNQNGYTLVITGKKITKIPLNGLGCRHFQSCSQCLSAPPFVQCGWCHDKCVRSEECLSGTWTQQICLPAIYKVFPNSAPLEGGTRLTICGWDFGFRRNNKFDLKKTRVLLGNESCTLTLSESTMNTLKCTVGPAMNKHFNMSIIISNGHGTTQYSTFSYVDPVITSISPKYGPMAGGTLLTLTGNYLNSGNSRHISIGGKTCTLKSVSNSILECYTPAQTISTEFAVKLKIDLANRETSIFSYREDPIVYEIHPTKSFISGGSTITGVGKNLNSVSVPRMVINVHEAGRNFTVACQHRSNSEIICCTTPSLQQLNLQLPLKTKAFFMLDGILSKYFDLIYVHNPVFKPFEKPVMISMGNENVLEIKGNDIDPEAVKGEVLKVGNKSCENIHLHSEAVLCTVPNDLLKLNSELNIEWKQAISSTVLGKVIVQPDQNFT
Chain of Fc-fused ECD of PDGFRβ (P09619 33-532): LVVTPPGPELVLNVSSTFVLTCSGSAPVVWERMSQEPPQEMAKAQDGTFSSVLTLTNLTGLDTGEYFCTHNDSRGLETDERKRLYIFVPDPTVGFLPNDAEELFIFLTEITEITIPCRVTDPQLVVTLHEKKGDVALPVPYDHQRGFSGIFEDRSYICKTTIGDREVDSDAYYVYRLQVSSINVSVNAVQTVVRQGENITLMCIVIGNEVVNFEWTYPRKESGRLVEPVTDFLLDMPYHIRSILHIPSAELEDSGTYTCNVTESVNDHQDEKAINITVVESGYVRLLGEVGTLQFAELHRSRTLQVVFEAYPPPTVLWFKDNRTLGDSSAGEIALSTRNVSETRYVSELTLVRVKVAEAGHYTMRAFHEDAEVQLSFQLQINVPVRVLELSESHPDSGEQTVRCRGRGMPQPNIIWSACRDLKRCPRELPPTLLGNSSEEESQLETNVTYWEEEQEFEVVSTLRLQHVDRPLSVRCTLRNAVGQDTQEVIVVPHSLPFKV
Chain of Fc-fused ECD of FGFR3 (IIIc) (P22607 23-375): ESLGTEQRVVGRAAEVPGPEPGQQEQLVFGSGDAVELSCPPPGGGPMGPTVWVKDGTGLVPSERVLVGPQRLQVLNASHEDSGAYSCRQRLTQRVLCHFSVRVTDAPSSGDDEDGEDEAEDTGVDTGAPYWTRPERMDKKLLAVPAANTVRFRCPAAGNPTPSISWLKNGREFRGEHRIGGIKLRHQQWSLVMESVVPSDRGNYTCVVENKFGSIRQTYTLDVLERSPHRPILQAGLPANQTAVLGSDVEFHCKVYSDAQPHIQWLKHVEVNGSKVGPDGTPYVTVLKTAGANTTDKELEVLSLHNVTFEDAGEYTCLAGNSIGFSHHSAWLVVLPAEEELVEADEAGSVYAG

B1: AH06, variant of hu4D5 from library LN02, IgG format (antibody, V domains shown)
VH: EVQLVESGGGLVQPGGSLRLSCAASGFNIKDTYIHWVRQAPGKGLEWVARIYPTNGYTRYADSVKGRFTISADTSKNTAYLQMNSLRAEDTAVYYCSRWGGWGFYAFALWGQGTLVTVSS
VL: not shown
no binding (tested: 30 nM): [1] | [2] | [3] | [4] | [5] | [6] | [7] | [8]
